Reference: patent publication US20130017550

How the values were obtained:
[1] = molecular target: GST-PKC-θ, Q04759
[2] = molecular target: Myc-PKC-θ

Chain of GST-PKC-θ, Q04759 (Q04759 whole entry, looked up): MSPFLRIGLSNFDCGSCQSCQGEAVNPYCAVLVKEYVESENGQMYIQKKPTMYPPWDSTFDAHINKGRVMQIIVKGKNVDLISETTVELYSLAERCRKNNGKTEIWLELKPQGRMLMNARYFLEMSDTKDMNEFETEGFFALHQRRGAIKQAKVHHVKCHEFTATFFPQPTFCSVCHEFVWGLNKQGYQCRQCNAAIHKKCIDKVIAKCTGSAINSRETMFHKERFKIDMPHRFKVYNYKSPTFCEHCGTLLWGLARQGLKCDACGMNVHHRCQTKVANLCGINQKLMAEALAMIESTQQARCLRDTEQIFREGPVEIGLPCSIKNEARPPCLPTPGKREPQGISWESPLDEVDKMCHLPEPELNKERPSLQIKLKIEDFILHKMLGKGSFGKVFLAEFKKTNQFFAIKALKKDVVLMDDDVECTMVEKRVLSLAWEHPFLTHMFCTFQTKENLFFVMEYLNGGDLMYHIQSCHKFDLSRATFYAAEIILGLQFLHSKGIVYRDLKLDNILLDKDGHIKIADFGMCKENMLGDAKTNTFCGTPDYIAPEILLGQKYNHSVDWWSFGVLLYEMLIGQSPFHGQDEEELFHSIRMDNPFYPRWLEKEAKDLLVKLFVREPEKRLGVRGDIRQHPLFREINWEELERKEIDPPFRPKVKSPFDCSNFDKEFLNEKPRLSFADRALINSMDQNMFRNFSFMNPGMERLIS

B1: Flag-GLK (protein)
chain: MAQEDFELIQRIGSGTYGDVYKARNVNTGELAAIKVIKLEPGEDFAVVQQEIIMMKDCKHPNIVAYFGSYLRRDKLWICMEFCGGGSLQDIYHVTGPLSELQIAYVSRETLQGLYYLHSKGKMHRDIKGANILLTDNGHVKLADFGVSAQITATIAKRKSFIGTPYWMAPEVAAVERKGGYNQLCDLWAVGITAIELAELQPPMFDLHPMRALFLMTKSNFQPPKLKDKMKWSNSFHHFVKMALTKNPKKRPTAEKLLQHPFVTQHLTRSLAIELLDKVNNPDHSTYHDFDDDDPEPLVAVPHRIHSTSRNVREEKTRSEITFGQVKFDPPLRKETEPHHELPDSDGFLDSSEEIYYTARSNLDLQLEYGQGHQGGYFLGADKSLLKSVEEELHQRGHVAHLEDDEGDDDESKHSTLKAKIPPPLPPKPKSIFIPQEMHSTEDENQGTIKRCPMSGSPAKPSQVPPRPPPPRLPPHKPVALGNGMSSFQLNGERDGSLCQQQNEHRGTNLSRKEKKDVPKPISNGLPPTPKVHMGACFSKVFNGCPLKIHCASSWINPDTRDQYLIFGAEEGIYTLNLNELHETSMEQLFPRRCTWLYVMNNCLLSISGKASQLYSHNLPGLFDYARQMQKLPVAIPAHKLPDRILPRKFSVSAKIPETKWCQKCCVVRNPYTGHKYLCGALQTSIVLLEWVEPMQKFMLIKHIDFPIPCPLRMFEMLVVPEQEYPLVCVGVSRGRDFNQVVRFETVNPNSTSSWFTESDTPQTNVTHVTQLERDTILVCLDCCIKIVNLQGRLKSSRKLSSELTFDFQIESIVCLQDSVLAFWKHGMQGRSFRSNEVTQEISDSTRIFRLLGSDRVVVLESRPTDNPTANSNLYILAGHENSY
[1]
  PKC-θ-T538 phosphorylation in in vitro kinase assays using purified proteins (immunoblot): PKC-θ-T538 was directly phosphorylated by GLK
[2]
  PKC-θ phosphorylation in in vitro kinase assays (immunoblot): GLK phosphorylated PKC-θ at T538, but not at S676 or S695
